Values of other authors in paper PMC5150220.

Target: sigma32 peptide 132-144 (Escherichia coli) (UniProt P0AGB3)

DnaK, sequence (P0A6Y8 2-638): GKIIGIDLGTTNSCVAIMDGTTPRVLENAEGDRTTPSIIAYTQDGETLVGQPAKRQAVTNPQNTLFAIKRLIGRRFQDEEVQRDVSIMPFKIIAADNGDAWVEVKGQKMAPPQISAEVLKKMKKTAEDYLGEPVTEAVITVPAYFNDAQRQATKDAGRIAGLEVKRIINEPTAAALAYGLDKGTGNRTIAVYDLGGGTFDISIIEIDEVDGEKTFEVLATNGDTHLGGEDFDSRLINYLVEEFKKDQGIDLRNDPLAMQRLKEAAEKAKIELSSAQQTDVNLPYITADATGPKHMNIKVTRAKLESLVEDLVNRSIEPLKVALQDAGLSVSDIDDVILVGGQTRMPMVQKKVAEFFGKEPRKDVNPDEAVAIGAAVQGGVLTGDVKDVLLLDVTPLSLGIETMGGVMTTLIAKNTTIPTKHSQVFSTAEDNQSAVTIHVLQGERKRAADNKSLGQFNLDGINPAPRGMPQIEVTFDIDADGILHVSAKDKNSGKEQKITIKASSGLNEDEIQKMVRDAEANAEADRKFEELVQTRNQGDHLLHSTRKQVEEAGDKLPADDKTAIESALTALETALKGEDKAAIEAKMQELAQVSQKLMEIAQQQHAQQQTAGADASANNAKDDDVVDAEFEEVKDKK

Kd: 78 nM
Substance: DnaK (from UniProt P0A6Y8)
